The results in this text go back to EP2718310B1 (TLA Targeted Immunotherapies AB, dated 2017).

For assay [1], the target named is CCR3 (human) (UniProt P51677). Nature of the assay: cell-based or functional assay.
Assay [2] concerns the target T1, hCCR2b (human, UniProt P41597 1-374).
T1 chain: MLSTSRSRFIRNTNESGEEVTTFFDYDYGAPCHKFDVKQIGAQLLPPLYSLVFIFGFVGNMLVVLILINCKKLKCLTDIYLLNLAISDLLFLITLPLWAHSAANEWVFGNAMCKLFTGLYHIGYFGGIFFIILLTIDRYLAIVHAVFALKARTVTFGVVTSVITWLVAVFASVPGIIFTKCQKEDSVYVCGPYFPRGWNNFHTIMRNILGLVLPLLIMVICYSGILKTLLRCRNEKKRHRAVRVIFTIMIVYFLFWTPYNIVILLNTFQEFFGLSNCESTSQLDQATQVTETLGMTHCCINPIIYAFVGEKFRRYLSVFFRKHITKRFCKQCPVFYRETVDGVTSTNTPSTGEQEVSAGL
Nature of the assay: cell-based or functional assay.

For assay [3], the target named is CCR5 (human) (UniProt P51681). Nature of the assay: cell-based or functional assay.
For assay [4], the target named is CCR9 (human) (UniProt P51686). The assay is described as follows: cell-based or functional assay.
Assay [5] concerns the target CCR1 (UniProt P32246). The assay is described as follows: in vitro depletion: biotinylated RANTES coupled matrix, flow cytometry for CCR1, 3 or 5-expressing cells (receptor not singled out). In general terms: A flow cytometer gives signals particle by particle.
The target in assay [6] is CCR5 (human) (UniProt P51681). The assay is described as above.
In assay [7] the target is CCR3 (human) (UniProt P51677). The description is as above.
Assay [8] has as its target CCR3 (human) (UniProt P51677). Nature of the assay: in vitro depletion: blood passed through magnetic column with eotaxin coupled MACS beads, flow cytometry for CCR3-expressing cells.

CCR3 (human), sequence (P51677 whole entry): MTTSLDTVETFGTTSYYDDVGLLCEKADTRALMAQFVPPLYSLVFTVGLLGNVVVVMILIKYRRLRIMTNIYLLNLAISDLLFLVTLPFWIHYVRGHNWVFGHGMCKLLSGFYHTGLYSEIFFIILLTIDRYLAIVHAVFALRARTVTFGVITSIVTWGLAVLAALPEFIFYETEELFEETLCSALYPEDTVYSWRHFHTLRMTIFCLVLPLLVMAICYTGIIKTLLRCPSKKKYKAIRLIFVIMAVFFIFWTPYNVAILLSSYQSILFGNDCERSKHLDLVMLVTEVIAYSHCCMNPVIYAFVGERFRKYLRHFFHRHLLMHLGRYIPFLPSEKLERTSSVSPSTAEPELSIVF
CCR9 (human), sequence (P51686 whole entry): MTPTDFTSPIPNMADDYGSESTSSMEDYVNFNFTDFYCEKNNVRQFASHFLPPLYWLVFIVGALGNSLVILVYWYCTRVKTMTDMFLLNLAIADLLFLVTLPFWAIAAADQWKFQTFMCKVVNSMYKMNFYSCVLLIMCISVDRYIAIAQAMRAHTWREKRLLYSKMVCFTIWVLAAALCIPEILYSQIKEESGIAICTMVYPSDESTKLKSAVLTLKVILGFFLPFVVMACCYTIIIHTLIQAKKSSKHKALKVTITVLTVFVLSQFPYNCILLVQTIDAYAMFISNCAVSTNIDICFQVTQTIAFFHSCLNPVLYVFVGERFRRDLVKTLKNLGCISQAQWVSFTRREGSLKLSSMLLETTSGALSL
CCR5 (human), sequence (P51681 whole entry): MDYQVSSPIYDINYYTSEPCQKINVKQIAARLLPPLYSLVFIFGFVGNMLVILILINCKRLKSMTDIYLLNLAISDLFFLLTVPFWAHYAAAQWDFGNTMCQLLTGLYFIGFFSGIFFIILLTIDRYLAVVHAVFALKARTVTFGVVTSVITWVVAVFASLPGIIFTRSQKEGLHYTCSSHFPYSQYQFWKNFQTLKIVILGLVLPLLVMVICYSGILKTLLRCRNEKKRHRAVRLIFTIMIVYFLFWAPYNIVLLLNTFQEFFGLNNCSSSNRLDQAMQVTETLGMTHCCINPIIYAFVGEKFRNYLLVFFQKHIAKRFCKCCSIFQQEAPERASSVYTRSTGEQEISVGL
CCR1, sequence (P32246 whole entry): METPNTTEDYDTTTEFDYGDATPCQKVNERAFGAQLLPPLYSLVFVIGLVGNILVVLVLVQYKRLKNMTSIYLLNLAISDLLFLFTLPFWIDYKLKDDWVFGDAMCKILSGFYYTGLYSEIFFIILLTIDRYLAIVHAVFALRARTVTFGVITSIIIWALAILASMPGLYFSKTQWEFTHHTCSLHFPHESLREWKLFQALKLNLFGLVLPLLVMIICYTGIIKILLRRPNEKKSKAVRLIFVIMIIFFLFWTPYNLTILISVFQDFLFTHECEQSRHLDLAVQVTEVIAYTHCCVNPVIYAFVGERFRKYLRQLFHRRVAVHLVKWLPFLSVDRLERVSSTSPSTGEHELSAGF

biotinEotaxin (CCL11) (ligand): the EC50, Aequorin assay (antagonist) in assay [1] amounted to 212 nM. As to biotinMCP-2 (CCL8) (ligand), the EC50, Aequorin assay (partial agonist) in assay [2] amounted to 50.9 nM. biotinRANTES (CCL5) (ligand): the EC50, Aequorin assay (agonist activity) in assay [3] was found to be 0.5 nM. Regarding “biotinTECK(Met to Nleu substitution) (ligand)”, the EC50, Aequorin assay (agonist activity) in assay [4] came out at 63.6 nM. “biotinylated RANTES coupled matrix (ligand)”: the reduction of receptor-expressing cells by the column in assay [5], in assay [6] and in assay [7] was 20% throughout. Molecule “biotinylated eotaxin coupled matrix (ligand)” yielded a reduction of receptor-expressing cells by the column in assay [8] of 25%.

Regarding “recombinant native TECK (from UniProt O15444 24-150) (ligand)”, the EC50, Aequorin assay (agonist activity) in assay [4] amounted to 67.9 nM. The molecule recombinant native eotaxin (ligand) displayed an EC50, Aequorin assay (agonist) in assay [1] of 10.7 nM.

B1: recombinant native MCP-2 (ligand, UniProt P80075 24-99, looked up)
chain: QPDSVSIPITCCFNVINRKIPIQRLESYTRITNIQCPKEAVIFKTKRGKEVCADPKERWVRDSMKHLDQIFQNLKP
For the molecule B1, the “EC50, Aequorin assay (partial agonist)” value in assay [2] came out at 23.5 nM.
